How the values were obtained:
Assay in all cases: flow cytometry on transiently transfected L1.2 cells
[1] = molecular target: T1, chimeric receptor 1. HHHH (human, UniProt P21730 1-350)
T1 construct: Transiently expressed on mouse L1.2 cells
T1 chain: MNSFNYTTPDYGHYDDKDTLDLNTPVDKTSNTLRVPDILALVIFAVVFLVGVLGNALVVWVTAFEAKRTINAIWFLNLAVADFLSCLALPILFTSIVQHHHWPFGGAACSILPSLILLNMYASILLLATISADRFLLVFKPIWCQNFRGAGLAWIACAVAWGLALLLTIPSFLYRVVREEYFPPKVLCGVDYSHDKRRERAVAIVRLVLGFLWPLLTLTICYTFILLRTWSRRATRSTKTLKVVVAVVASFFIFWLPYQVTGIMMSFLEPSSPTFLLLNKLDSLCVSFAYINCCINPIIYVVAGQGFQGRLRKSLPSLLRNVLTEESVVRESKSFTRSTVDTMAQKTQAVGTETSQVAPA
Method: (§1) A series of chimeric receptors comprising segments of mouse and human C5aR were constructed to identify the region of the C5a receptor that the antibodies bound. […] Each recombinant vector (5 μg diluted in DMEM) encoding a different chimeric receptor was transfected into 5×10⁵ mouse L1.2 cells using Lipofectamine 2000 (Invitrogen). Cells were grown in DMEM or RPMI (Invitrogen) plus 10% foetal bovine serum (Hyclone). After 24 hours or 48 hours, cells were harvested by centrifugation at 1,500 rpm for 5 min and resuspended in FACS buffer (phosphate buffered saline plus 2% bovine serum albumin). For staining with hAb-Q, 0.5×10⁵ transfected cells were incubated with 5 or 10 μg/ml antibody in a volume of 50 μl per well at 4° C. for 20 minutes. Cells were pelleted as above and rinsed 3 times with 150 μl FACS buffer before addition of 50 μl FITC-conjugated anti-human IgG diluted 1:200 or 1:300 (Sigma, F1641). This mix was incubated for 20 min at 4° C. before cells were pelleted, washed with FACS buffer 3 times and finally resuspended in 150-200 μl FACS buffer. Samples were analysed on a FACS Calibur (BD Biosciences).
(§2) To confirm that the humanised antibody hAb-Q, which was derived from mouse mAb 7F3 by CDR grafting, and therefore should contain the same antigen-binding site, had the same staining pattern as 7F3, transiently transfected cells expressing the different chimeric human/mouse C5aR were stained with hAb-Q and analysed by flow cytometry. The pattern of staining by hAb-Q was identical to that observed with 7F3. There was no staining by the secondary antibody (anti-hIgG-FITC) alone.

[2] = molecular target: T2, chimeric receptor 8. HHHm (human; mouse, UniProt P30993 264-283, limits assumed)
T2 construct: Transiently expressed on mouse L1.2 cells
T2 sequence: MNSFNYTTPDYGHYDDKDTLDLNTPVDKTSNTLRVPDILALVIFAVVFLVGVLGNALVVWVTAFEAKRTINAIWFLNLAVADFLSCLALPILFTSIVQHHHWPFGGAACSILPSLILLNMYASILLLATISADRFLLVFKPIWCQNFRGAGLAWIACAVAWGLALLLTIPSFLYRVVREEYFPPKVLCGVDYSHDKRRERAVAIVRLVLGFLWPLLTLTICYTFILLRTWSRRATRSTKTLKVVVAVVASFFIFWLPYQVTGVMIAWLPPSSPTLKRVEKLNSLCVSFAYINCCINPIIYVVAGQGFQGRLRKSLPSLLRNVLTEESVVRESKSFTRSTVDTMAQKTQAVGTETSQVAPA
Method: as §1, §2

[3] = molecular target: T3, chimeric receptor 11. mmHm (mouse; human, UniProt P30993 1-111; P30993 264-351, limits assumed)
T3 construct: Transiently expressed on mouse L1.2 cells
T3 sequence: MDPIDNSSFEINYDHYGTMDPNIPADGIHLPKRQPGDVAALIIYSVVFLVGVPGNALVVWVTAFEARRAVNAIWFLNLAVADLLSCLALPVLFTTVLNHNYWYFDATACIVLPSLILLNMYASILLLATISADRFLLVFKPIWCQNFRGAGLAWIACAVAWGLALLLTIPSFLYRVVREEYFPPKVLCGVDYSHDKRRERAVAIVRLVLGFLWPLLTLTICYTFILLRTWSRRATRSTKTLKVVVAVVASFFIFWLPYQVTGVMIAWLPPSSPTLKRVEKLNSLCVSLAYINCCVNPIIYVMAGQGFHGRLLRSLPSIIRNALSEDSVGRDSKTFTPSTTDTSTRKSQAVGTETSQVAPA
Method: as §1, §2

[4] = molecular target: T4, chimeric receptor 2. mHHH (mouse; human, UniProt P30993 1-39)
T4 construct: range 1-39; Transiently expressed on mouse L1.2 cells
T4 sequence: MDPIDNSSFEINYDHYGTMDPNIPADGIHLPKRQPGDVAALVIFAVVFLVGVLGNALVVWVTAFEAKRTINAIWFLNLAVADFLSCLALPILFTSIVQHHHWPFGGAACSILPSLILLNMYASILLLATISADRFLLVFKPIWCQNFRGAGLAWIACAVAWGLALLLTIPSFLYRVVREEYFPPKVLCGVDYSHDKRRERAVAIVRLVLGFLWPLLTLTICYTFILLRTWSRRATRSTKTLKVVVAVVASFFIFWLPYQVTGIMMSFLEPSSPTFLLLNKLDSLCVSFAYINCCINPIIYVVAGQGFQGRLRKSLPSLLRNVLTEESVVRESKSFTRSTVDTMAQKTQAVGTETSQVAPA
Method: as §1, §2

[5] = molecular target: T5, chimeric receptor 3. mmHH (mouse; human, UniProt P30993 1-111)
T5 construct: range 1-111; Transiently expressed on mouse L1.2 cells
T5 sequence: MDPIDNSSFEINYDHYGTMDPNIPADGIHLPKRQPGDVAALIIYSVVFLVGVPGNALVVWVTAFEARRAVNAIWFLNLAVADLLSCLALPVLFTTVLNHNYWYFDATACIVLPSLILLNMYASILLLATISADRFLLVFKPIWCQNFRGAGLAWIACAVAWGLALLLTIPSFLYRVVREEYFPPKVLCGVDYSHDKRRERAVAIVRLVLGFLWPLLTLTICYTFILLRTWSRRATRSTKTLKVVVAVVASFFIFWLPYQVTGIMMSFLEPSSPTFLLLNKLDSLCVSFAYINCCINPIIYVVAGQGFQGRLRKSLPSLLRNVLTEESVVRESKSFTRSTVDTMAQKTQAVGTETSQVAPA
Method: as §1, §2

Measured: binding result

B1: humanized anti-C5aR antibody hAb-Q (antibody, human IgG4 S228P, kappa)
light: DVVMTQSPLSLPVTLGEPASISCRSSQSLVHSNGNTYLHWYLQKPGQSPQLLIYKVSNRFSGVPDRFSGSGSGTDFTLKISRVEAEDVGVYFCSQSTLVPLTFGQGTKLEIKRTVAAPSVFIFPPSDEQLKSGTASVVCLLNNFYPREAKVQWKVDNALQSGNSQESVTEQDSKDSTYSLSSTLTLSKADYEKHKVYACEVTHQGLSSPVTKSFNRGEC
heavy: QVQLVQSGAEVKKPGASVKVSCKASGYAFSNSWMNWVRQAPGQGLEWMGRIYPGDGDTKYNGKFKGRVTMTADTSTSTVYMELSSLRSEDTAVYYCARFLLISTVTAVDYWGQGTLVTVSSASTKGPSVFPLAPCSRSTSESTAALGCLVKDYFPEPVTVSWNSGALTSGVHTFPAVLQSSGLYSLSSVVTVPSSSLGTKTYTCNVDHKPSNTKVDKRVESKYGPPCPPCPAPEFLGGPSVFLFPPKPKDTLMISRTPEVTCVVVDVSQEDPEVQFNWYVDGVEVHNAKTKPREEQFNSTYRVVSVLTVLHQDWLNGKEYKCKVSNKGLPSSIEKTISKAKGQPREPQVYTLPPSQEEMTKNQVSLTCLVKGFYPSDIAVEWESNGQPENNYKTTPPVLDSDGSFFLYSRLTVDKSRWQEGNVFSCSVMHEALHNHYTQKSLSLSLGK
notes: IgG4 with the Ser228Pro mutation; also called antibody Q; anti-C5aR ab
binds: all assays above

— patent publication US20110190477A1 (G2 INFLAMMATION, published 2011)
